First the molecules themselves.
B1: Zinc finger MYM-type protein 3, residues 589 to 668; numbered along this chain, Q14202 (parent)
chain: LSCHYCHSLFSGKPEVLDWQDQVFQFCCRDCCEDFKRLRGVVSQCEHCRQEKLLHEKLRFSGVEKSFCSEGCVLLYKQDF

± gives the uncertainty stated by the source.

The data set covers variants of B1. The experiment in a line: abundance fitness (aPCA) (normalised: wild type 0, dead -1); higher = more abundant; growth selection in yeast, the domain comes from the species named. Conditions: Homo sapiens.
With C48P, the abundance fitness is 0.207 ± 0.23.
In the case of K77P, the abundance fitness was -0.71 ± 0.22.
Consider K77V, for which the abundance fitness is -0.193 ± 0.14.
With K77Q, the abundance fitness was -0.149 ± 0.38.
The figure for L54V is -0.046 ± 0.091; for L54E it is -0.866 ± 0.44; for R39C it is 0.272 ± 0.21.
For R39Q the value was 0.288 ± 0.14; for R39K, -0.146 ± 0.33; for K13A, -0.037 ± 0.051.
The figure for K13L is -0.048 ± 0.048; for F80W it is -0.146 ± 0.38.
Turning to L1E, the abundance fitness is 0.082 ± 0.23.
The figure for L1S is -0.206 ± 0.056.
For L1T the value was 0.098 ± 0.046; for L1Q, -0.703 ± 0.35.
The figure for D21Q is 0.033 ± 0.055; for D21V it is -0.355 ± 0.052; for D21P it is -0.146 ± 0.053.
D21N: the abundance fitness is 0.027 ± 0.062.
As to C3N, the abundance fitness was -1.11 ± 0.23.
With C3T, the abundance fitness was -0.936 ± 0.085.
For the variant C3I, the abundance fitness was -1.02 ± 0.26.
The figure for C3D is -1.04 ± 0.13.
The figure for C3H is -1.17 ± 0.42.
For K52P the value was -0.998 ± 0.35.
Consider W19M, for which the abundance fitness turned out to be 0.48 ± 0.047.
As for W19P, the abundance fitness was determined as 0.224 ± 0.055.
The figure for W19H is 0.137 ± 0.16; for W19L it is 0.332 ± 0.042.
For W19V the value was 0.167 ± 0.043.
Regarding F24I, the abundance fitness is 0.072 ± 0.078.
For R59L the value was 0.251 ± 0.099.
For R59G the value was -0.261 ± 0.1; for E33Y, -0.173 ± 0.088; for E33H, 0.124 ± 0.064.
For V73L the value was 0.268 ± 0.11; for V73W, -0.167 ± 0.18; for V73T, -0.167 ± 0.19.
Regarding V23Q, the abundance fitness came to 0.246 ± 0.044.
On to S8Q, for which the abundance fitness came to 0.397 ± 0.053.
As to S8I, the abundance fitness was found to be 0.309 ± 0.065.
Take S2V: the abundance fitness is 0.135 ± 0.049.
Consider S2G, for which the abundance fitness was determined as 0.157 ± 0.044.
S2I: the abundance fitness was determined as 0.311 ± 0.069.
S2L: the abundance fitness stood at 0.081 ± 0.043.
For S2N the value was 0.48 ± 0.055; for V63T, -0.271 ± 0.28.
In the case of V63D, the abundance fitness is -0.175 ± 0.21.
The figure for V63K is -0.13 ± 0.23; for P14M it is -0.169 ± 0.065; for V16R it is 0.004 ± 0.043.
For V16Q the value was 0.003 ± 0.055; for V16L, -0.065 ± 0.05.
The figure for K36Y is -0.561 ± 0.14; for K36A it is -0.077 ± 0.042; for K36Q it is 0.034 ± 0.048.
As for K36H, the abundance fitness was -0.089 ± 0.057.
Turning to K36G, the abundance fitness is -0.019 ± 0.039.
In the case of S61K, the abundance fitness is -0.096 ± 0.16.
Turning to S61A, the abundance fitness worked out at 0.284 ± 0.12.
As to S61W, the abundance fitness was -0.467 ± 0.2.
Regarding E46L, the abundance fitness is -0.116 ± 0.09.
Turning to E46C, the abundance fitness came out at 0.271 ± 0.2.
For E46P the value was 0.996 ± 0.28; for E46T, 0.24 ± 0.22; for E46D, 0.228 ± 0.23.
Regarding E64C, the abundance fitness was -0.165 ± 0.42.
Consider E64Q, for which the abundance fitness is -0.363 ± 0.18.
Regarding C28I, the abundance fitness was -0.703 ± 0.13.
The figure for H47P is -0.742 ± 0.42; for L74Q it is 0.244 ± 0.15.
L17F: the abundance fitness is -0.079 ± 0.059.
The figure for L17M is 0.043 ± 0.055; for L17G it is -0.135 ± 0.041.
Take L17Q: the abundance fitness was -0.015 ± 0.068.
For R37M the value was -0.086 ± 0.22; for R37G, -0.045 ± 0.061; for R37E, -0.084 ± 0.18.
The figure for R37A is 0.057 ± 0.16; for E56H it is -0.161 ± 0.32.
For C27I the value was -0.752 ± 0.21; for C27L, -0.89 ± 0.08.
Take R29D: the abundance fitness stood at 0.082 ± 0.053.
Consider R29P, for which the abundance fitness worked out at 0.068 ± 0.056.
For R29T, the abundance fitness is -0.002 ± 0.046.
The figure for R29A is 0.069 ± 0.042; for Y76Q it is -0.179 ± 0.15.
For the variant Y76T, the abundance fitness was -0.038 ± 0.22.
For the variant Y76K, the abundance fitness is -0.048 ± 0.13.
For the variant D30I, the abundance fitness is -0.243 ± 0.088.
For D30T the value was 0.131 ± 0.044; for D30A, 0.027 ± 0.043.
On to F10E, for which the abundance fitness is -0.691 ± 0.08.
With F10I, the abundance fitness is -0.115 ± 0.064.
For F10Y the value was -0.191 ± 0.093.
For Q44F the value was 1.01 ± 0.16; for Q44I, 0.547 ± 0.37.
The figure for Q44R is 0.889 ± 0.075; for Q44C it is 0.397 ± 0.13; for C72R it is -0.781 ± 0.17.
Regarding C68R, the abundance fitness was -0.892 ± 0.28.
Take C68Q: the abundance fitness is -0.558 ± 0.19.
For the variant C68M, the abundance fitness is -0.505 ± 0.32.
The figure for E15H is -0.017 ± 0.082.
The figure for E15W is -0.033 ± 0.045; for E15Q it is -0.086 ± 0.068.
The figure for E15L is -0.014 ± 0.047.
Consider Q22Y, for which the abundance fitness stood at 0.101 ± 0.061.
The figure for D18Q is 0.067 ± 0.056; for D18Y it is -0.127 ± 0.053; for D18V it is -0.073 ± 0.059.
In the case of L9F, the abundance fitness was -0.062 ± 0.061.
The figure for L9C is -0.184 ± 0.066; for L9S it is 0.009 ± 0.048; for L9G it is 0.121 ± 0.038.
The figure for L9M is -0.097 ± 0.053; for L9Q it is 0.093 ± 0.045.
C31D: the abundance fitness is -0.545 ± 0.12.
Regarding E51H, the abundance fitness worked out at 0.675 ± 0.42.
As to E51Q, the abundance fitness came to 0.003 ± 0.41.
E51I: the abundance fitness is -0.546 ± 0.32.
On to G71W, for which the abundance fitness is -0.219 ± 0.22.
The figure for F60D is -0.529 ± 0.36.
For S69V the value was -0.534 ± 0.17.
Consider S69Q, for which the abundance fitness is -0.638 ± 0.42.
For R49L the value was -0.131 ± 0.11; for R49S, 0.283 ± 0.14.
For R49F the value was -0.38 ± 0.2.
For R49A the value was -0.507 ± 0.2; for R49D, -0.485 ± 0.46; for V42P, 0.176 ± 0.48.
For V42M, the abundance fitness was 0.422 ± 0.12.
The figure for F26E is -0.506 ± 0.057; for F26Y it is -0.409 ± 0.1.
The figure for F26W is -0.522 ± 0.075.
On to H55V, for which the abundance fitness is -0.006 ± 0.14.
As for H55P, the abundance fitness amounted to 0.106 ± 0.19.
For H55G the value was -0.126 ± 0.096.
H55E: the abundance fitness was -0.392 ± 0.14.
In the case of H55N, the abundance fitness came out at 0.027 ± 0.24.
Consider C6Y, for which the abundance fitness is -0.828 ± 0.13.
Take C6V: the abundance fitness is -0.995 ± 0.077.
For C6F the value was -1.2 ± 0.35; for K57I, 0.297 ± 0.17; for K57G, -0.493 ± 0.11.
In the case of K57N, the abundance fitness was -0.237 ± 0.23.
Regarding K57W, the abundance fitness is -0.756 ± 0.2.
For Q50Y, the abundance fitness was -0.312 ± 0.21.
In the case of Q50A, the abundance fitness is -0.641 ± 0.18.
The figure for L75W is -0.561 ± 0.13; for L75S it is 0.258 ± 0.11.
For L75C the value was 0.373 ± 0.21; for G12D, -0.274 ± 0.079.
For L38I the value was 0.063 ± 0.16; for L53N, -0.163 ± 0.45.
Turning to L53T, the abundance fitness is -0.196 ± 0.27.
Consider L53V, for which the abundance fitness is -0.056 ± 0.092.
As for C32E, the abundance fitness was -0.203 ± 0.055.
As for C32T, the abundance fitness was -0.108 ± 0.047.
For F35Y the value was -0.177 ± 0.1.
The figure for F35Q is -0.421 ± 0.071; for F35I it is -0.624 ± 0.084; for F35H it is -0.219 ± 0.067.
For F35K the value was -0.529 ± 0.063; for F35S, -0.411 ± 0.055.
For the variant D79E, the abundance fitness stood at 0.018 ± 0.15.

Source of the values: the Human Domainome abundance scans (Beltran et al. 2025).
